The values below come from patent publication US11129879B2, “Methods for the treatment of neurological disorders and diseases using FNDC5” (Dana-Farber Cancer Institute, Inc., priority 2013, dated 2021).

Assay [1] concerns primary cortical neurons. Nature of the assay: gene expression by qPCR in cultured primary cortical neurons. The assay is classed as cell-based, mouse. The following applies: for Fndc5 gene expression: 1 μM; for Fndc5 gene expression / Fndc5 mRNA expression: DIV 7, vs vehicle; for Fndc5 mRNA expression: 100 ng/ml. As to the method:
(§1) Primary cortical and hippocampal neurons were isolated as described in great detail previously in Bartlett and Banker (1984) J. Neurosci. 4, 1944-1953. Briefly, cortices and hippocampi were dissected from E16-E18 embryos, dissociated with trypsin (Sigma) and DNAse (Roche), and plated on poly-L-lysine-coated (Sigma) plates. Dissociated neurons were cultured in Neurobasal Media supplemented with B27, GlutaMAX™ (Life Technologies), and Penicillin-Streptomycin (Cellgro).
Cells or tissues were lysed and homogenized in TRIzol (Invitrogen). Total RNA was subsequently isolated using the RNeasy Mini or Micro Kit (Qiagen). First-strand cDNA was generated using the High Capacity cDNA Reverse Transcription Kit (Life Technologies), and qPCR was performed using SYBR Green Master Mix in a 7900HT Real-Time PCR system (Applied Biosystems). mRNA quantities were normalized to Rsp18 after determination by the comparative Ct method (Schmittgen and Livak (2008) Nat. Protocols 3, 1101-1108).
Primary cortical neurons were transduced at the indicated time-points and were harvested 48 hrs later for RNA isolation. For knockdown studies, primary cortical neurons were transduced with viral supernatants from HEK293T cells transfected with pLKO.1 vector (TRC) containing the specified shRNAs at the indicated time-points.
(In general: Quantitative PCR measures a nucleic acid by following its amplification.)

Another assay has as its system substantia nigra. The following applies: 4 mg/kg/d, harvested 2 days later, microarray, vs untreated mice; cited from earlier work.
In another assay the test system is SH-SSY5Y neurons. Nature of the assay: Fndc5 gene expression by qPCR in SH-SSY5Y neurons. It is filed as cell-based, human. The following applies: treatment with the neurotoxin. As to the method: The cells were differentiated with retinoic acid. Gene expression was assessed with qPCR.
Assay [2] has as its system primary hippocampal neurons. Nature of the assay: gene expression by qPCR in cultured primary hippocampal neurons. It is filed as cell-based, mouse. The procedure: At the indicated days in vitro (DIV) mRNA was prepared and gene expression was assessed by qPCR. Data are shown as mRNA levels relative to Rsp18 expression, expressed as mean±SEM. *P<0.05 compared to DIV 1 control group. […] Forty-eight hours later mRNA was prepared and gene expression was assessed by qPCR. Data are shown as mRNA levels relative to Rsp18 expression, expressed as mean±SEM. *P<0.05 compared to corresponding GFP expressing control group. […] Four days later mRNA was prepared and gene expression was assessed by qPCR. Data are shown as mRNA levels relative to Rsp18 expression, expressed as mean±SEM. *P<0.05 compared to corresponding shLuc expressing control group. […] Data are shown as mRNA levels relative to Rsp18 expression, expressed as mean±SEM. *P<0.05 compared to vehicle only group. […] Four days later mRNA was prepared and gene expression was assessed by qPCR. Data are shown as mRNA levels relative to Rsp18 expression, expressed as mean±SEM. *P<0.05 compared to corresponding shLuc expressing control group. […] Data are shown as mRNA levels relative to Rsp18 expression, expressed as mean±SEM. *P<0.05 compared to vehicle only group.
as §1
Cells or tissues were lysed and homogenized in TRIzol (Invitrogen). […] First-strand cDNA was generated using the High Capacity cDNA Reverse Transcription Kit (Life Technologies), and qPCR was performed using SYBR Green Master Mix in a 7900HT Real-Time PCR system (Applied Biosystems). mRNA quantities were normalized to Rsp18 after determination by the comparative Ct method (Schmittgen and Livak (2008) Nat. Protocols 3, 1101-1108).

Assay [3] concerns primary cortical neurons. Nature of the assay: irisin stimulation of silenced primary cortical neurons, mRNA levels of genes of interest. It is filed as cell-based, mouse. As to conditions: 1 ug/mL (Enzo) at DIV7 after silencing with 1 uM TTX and 100 uM APV; time course, p<0.05 from baseline. The procedure: Primary cortical neurons were silenced at DIV6 with 1 uM TTX and 100 uM APV overnight. The neurons were then stimulated at DIV7 using irisin (1 ug/mL; Enzo; Product No. ADI-908-307-0010). […] In a separate analysis, primary cortical neurons were silenced at DIV6 with 1 uM TTX and 10 uM MK801 overnight. […] In still a separate analysis, primary cortical neurons were silenced at DIV6 with 1 uM TTX and 100 uM APS overnight. The neurons were then stimulated at […] using irisin (1 ug/mL; Enzo; Product No. ADI-908-307-0010). […] In yet another separate analysis, primary cortical neurons were silenced at DIV7 with 1 uM TTX and 100 uM APS overnight. The neurons were then stimulated at DIV8 using 1 ug/mL of irisin from one of two vendors (i.e., either from Enzo, Product No. ADI-908-307-0010, or from Phoenix, Product No. 067-29A).

For assay [4], the system named is human embryonic stem cells differentiated into motor neurons (eMN). Nature of the assay: human embryonic stem cells differentiated into motor neurons (eMN), gene expression by qPCR. The assay is classed as cell-based. The procedure:
Gene expression was assessed with qPCR.
Growth of human embryonic stem cells, differentiation of human embryonic stem cells into motor neurons, and glial co-culture were performed as described in DiGiorgio et al. (2008) Cell Stem Cell 3:637-648.

In a further assay the test system is Wild type C56/B16 mice. Nature of the assay: peripheral injections of irisin-Fc, Bdnf gene expression by qPCR. The assay is classed as in vivo, mouse. The following applies: 5 mg/kg i.p., RNA 10d later, vs humanFc. As to the method:
Wild type C56/B16 mice were injected with either irisinFc or humanFc (5 mg/kg) i.p. Total RNA for qPCR was harvested 10d later. Results are shown as mean+SEM, n=6, *P<0.05.

For assay [5], the system named is primary cortical neurons. Nature of the assay: binding of irisinFc to PFA-fixed cultured neurons, detected by secondary anti-human Fc fluorescent antibody. The arrangement: species or system mouse. The following applies: PFA-fixed cultures, vs humanFc. The procedure:
PFA-fixed cultured primary cortical neurons were incubated with either irisin-Fc or humanFc as control and binding of irisinFc was detected by a secondary anti-human Fc fluorescent antibody. IrisinFc clearly binds to neurons in culture, especially given that the observed pattern of the binding and the fact that the cultures are highly enriched in neurons (>90%).

Assay [6] deals with primary cortical neurons. Nature of the assay: CellTiter-Glo Luminescent Cell Viability Assay of cultured neurons. The assay is classed as cell-based, mouse. The following applies: treatment during in vitro culture for 7 days, relative to hFc. As to the method: Cell viability of cultured neurons was assessed using CellTiter-Glo® Luminescent Cell Viability Assay (Promega, Madison, Wis.) according to the manufacturer's instructions. Luminescence of cell lysates was measured using the FLUOstar Omega plate reader (BMG LABTECH, Offenburg, Germany).
For orientation: Cellular ATP, detected with luciferase, serves as a proxy for viable cell number.

The mark [7] stands for this setting: 1 ug/ml at DIV 5 and 6, vs vehicle.
[8] abbreviates: 5× concentrated conditioned media from CHO cell lines, RNA next day, vs hFc.

`Cc1cc(SCc2sc(-c3ccc(C(F)(F)F)c(F)c3)nc2C)ccc1OCC(=O)O` [GW0742, reference compound]: in the assay with primary cortical neurons [1] (overnight), the Fndc5 gene expression entry is on record as “no effect on Fndc5 gene expression”.

With `CN1CC=C(c2ccccc2)CC1` [MPTP, 1-methyl-4-phenyl-1,2,3,6-tetrahydropyridine], in the assay on substantia nigra, the “Fndc5 expression in substantia nigra” value was “significantly lower Fndc5 expression”.

Regarding `COC(=O)[C@@]1(O)C[C@H]2O[C@]1(C)n1c3ccccc3c3c4c(c5c6ccccc6n2c5c31)C(=O)NC4` [K252a, reference compound], the “reduction of Fndc5 mRNA expression by BDNF” value with primary cortical neurons [1] (pre-incubation with 50 nM, then BDNF 100 ng/ml overnight) is recorded as “This effect was abolished”.

As for `CCN(CC)c1ccc(/C=N/NC(=O)c2ccc(O)cc2)cc1` [DY131, reference compound], the Fndc5 gene expression result in the assay on primary cortical neurons [1] (overnight) is “had no effect on Fndc5 gene expression”.

On to “IGF-1: recombinant mouse insulin-like growth factor 1, R&D Systems”, for which the “Fndc5 mRNA expression” value in the assay on primary cortical neurons [1] (overnight) is recorded as “only BDNF stimulation significantly reduced”.

In the case of `CC(C)(Sc1ccc(CCN(CCCCC2CCCCC2)C(=O)NC2CCCCC2)cc1)C(=O)O` [GW7647, reference compound], the Fndc5 gene expression entry in the assay on primary cortical neurons [1] (overnight) was “no effect on Fndc5 gene expression”.

On to `COc1cc(/C=C(\C#N)C(=O)Nc2nnc(C(F)(F)F)s2)ccc1OCc1ccc(C(F)(F)F)cc1C(F)(F)F` [XCT 790, reference compound], for which, in the assay with primary cortical neurons [1] (overnight), the Fndc5 gene expression result is listed as “significantly reduced Fndc5 gene expression”.

For the molecule `C=C(C)[C@H]1Cc2c(ccc3c2O[C@@H]2COc4cc(OC)c(OC)cc4[C@@H]2C3=O)O1` [rotenone], in the assay on SH-SSY5Y neurons, the Fndc5 gene expression result is on record as “reduces Fndc5 gene expression”.

B1: BDNF: recombinant human brain-derived neurotrophic factor, PeproTech (protein)
chain: HSDPARRGELSVCDSISEWVTAADKKTAVDMSGGTVTVLEKVPVSKGQLKQYFYETKCNPMGYTKEGCRGIDKRHWNSQCRTTQSYVRALTMDSKKRIGWRFIRIDTSCVCTLTIKRGR
On to B1, for which the “Fndc5 mRNA expression” value in the assay on primary cortical neurons [1] (overnight) is given as “only BDNF stimulation significantly reduced Fndc5 mRNA expression”. For the same molecule, the “lowest concentration that significantly reduced Fndc5 gene expression” value in the assay with primary cortical neurons [1] (overnight, 0.1-100 ng/ml tested, dose-response observed) came out at 1 ng/mL. For the same molecule, the Fndc5 gene expression entry in assay [2] (100 ng/ml, overnight, DIV 7, vs vehicle) is recorded as “reduced Fndc5 gene expression”.

B2: CNTF: recombinant human ciliary neurotrophic factor, Sigma (protein, UniProt P26441 1-200, looked up)
Ciliary neurotrophic factor: MAFTEHSPLTPHRRDLCSRSIWLARKIRSDLTALTESYVKHQGLNKNINLDSADGMPVASTDQWSELTEAERLQENLQAYRTFHVLLARLLEDQQVHFTPTEGDFHQAIHTLLLQVAAFAYQIEELMILLEYKIPRNEADGMPINVGDGGLFEKKLWGLKVLQELSQWTVRSIHDLRFISSHQTGIPARGSHYIANNKKM
As for B2, in the assay with primary cortical neurons [1] (overnight), the “Fndc5 mRNA expression” value is recorded as “only BDNF stimulation significantly reduced”.

B3: NGF: recombinant mouse nerve growth factor, EMD Millipore (protein, UniProt P01139 122-241, looked up)
Beta-nerve growth factor: SSTHPVFHMGEFSVCDSVSVWVGDKTTATDIKGKEVTVLAEVNINNSVFRQYFFETKCRASNPVESGCRGIDSKHWNSYCTTTHTFVKALTTDEKQAAWRFIRIDTACVCVLSRKATRRG
Turning to B3, in the assay on primary cortical neurons [1] (overnight), the “Fndc5 mRNA expression” value was “only BDNF stimulation significantly reduced”.

B4: recombinant irisin: commercially available recombinant irisin, secreted form of FNDC5 (Phoenix Pharmaceuticals; Enzo in b292) (protein, UniProt Q8NAU1 1-191, looked up)
Irisin: MQAARGGAGRPERPGRPGRGPERERERPPGAGAASPCAAPGLPAGGATIHPGSPSAWPPRARAALRLWLGCVCFALVQADSPSAPVNVTVRHLKANSAVVSWDVLEDEVVIGFAISQQKKDVRMLRFIQEVNTTTRSCALWDLEEDTEYIVHVQAISIQGQSPASEPVLFKTPREAEKMASKNKDEVTMKE
modifications: Irisin
For the molecule B4, the “changes in mRNA levels of genes of interest” value in the assay with primary cortical neurons [3] is on record as “many of the analyzed genes have statistically significant changes”. Also, in assay [2] (setting [7]), the Bdnf gene expression entry is given as “did not reach statistical significance”; the “gene program (Arc, cFos, Npas4, and Zif268)” value is listed as “induced a similar gene program”.

B5: GDNF: recombinant human glial cell-derived neurotrophic factor, Sigma (protein, UniProt P39905 78-211, looked up)
Glial cell line-derived …: SPDKQMAVLPRRERNRQAAAANPENSRGKGRRGQRGKNRGCVLTAIHLNVTDLGLGYETKEELIFRYCSGSCDAAETTYDKILKNLSRNRRLVSDKVGQACCRPIAFDDDLSFLDDNLVYHILRKHSAKRCGCI
Turning to B5, in the assay on primary cortical neurons [1] (overnight), the “Fndc5 mRNA expression” value is given as “only BDNF stimulation significantly reduced”.

B6: irisinFc: Fc fusion of irisin (murine Fndc5 residues 29-140); amino acid sequence given in b228 (protein)
chain: DSPSAPVNVTVRHLKANSAVVSWDVLEDEVVIGFAISQQKKDVRMLRFIQEVNTTTRSCALWDLEEDTEYIVHVQAISIQGQSPASEPVLFKTPREAEKMASKNKDEVTMKEGGGGAGGGGVECPPCPAPPVAGPSVFLFPPKPKDTLMISRTPEVTCVVVDVSHEDPEVQFNWYVDGVEVHNAKTKPREEQFNSTFRVVSVLTVVHQDWLNGKEYKCKVSNKGLPAPIEKTISKTKGQPREPQVYTLPPSREEMTKNQVSLTCLVKGFYPSDIAVEWESNGQPENNYKTTPPMLDSDGSFFLYSKLTVDKSRWQQGNVFSCSVMHEALHNHYTQKSLSLSPGK
modifications: /note=“Description of Artificial Sequence IrisinFc polypeptide”
Regarding B6, in the assay with primary cortical neurons [1] (setting [8]), the Bdnf expression entry is “increased expression of Fndc5 and Bdnf”; the Fndc5 expression result was “increased expression of Fndc5 and Bdnf”. Also, in [4], the eMN synapse formation entry is “increases eMN synapse formation” and the “motor neuron differentiation of eMN” value is given as “promotes motor neuron differentiation”. In addition, in the assay with Wild type C56/B16 mice, the “Bdnf expression in the cerebellum” value was “significant increase in Bdnf expression” and the “Bdnf expression in the sciatic nerve” value is listed as “significant increase in Bdnf expression”. In the assay with primary cortical neurons [5], the binding to neurons entry is given as “neurons bind irisinFc”. Moreover, the cell viability result in the assay on primary cortical neurons [6] was “significantly increased cell viability”.
